Results from the supplement of paper PMC9112550, “Optimization of the antimicrobial peptide Bac7 by deep mutational scanning” (BMC Biology, 2022).

System: Escherichia coli TOP10
Experiment: shrunken log2 fold change of peptide-encoding DNA abundance (4.5 h post-induction vs induction); higher = less antimicrobial activity (less host growth inhibition)
Details: time post-induction: 4.5 h; library: site-saturation at positions 5, 18, 19, 20
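Further: peptides expressed intracellularly from a pBAD plasmid library in pooled LB shake-flask culture, induced with 0.3% L-arabinose, DNA abundance read by NGS, three biological replicates, DESeq2 with apeglm shrinkage.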

## RRIRKRPPRLPRPRPRPCAIPRP
  shrunken log2 fold change: 0.101

## RRIRTRPPRLPRPRPRPQDRPRP
  shrunken log2 fold change: -0.0332

## RRIRMRPPRLPRPRPRPNVLPRP
  shrunken log2 fold change: 0.359

## RRIRPRPPRLPRPRPRPKREPRP
  shrunken log2 fold change: 0.1

## RRIRCRPPRLPRPRPRPMEKPRP
  shrunken log2 fold change: 0.0833

## RRIRRRPPRLPRPRPRPRQFPRP
  shrunken log2 fold change: 0.225

## RRIRFRPPRLPRPRPRPFGDPRP
  shrunken log2 fold change: -0.19

## RRIRIRPPRLPRPRPRPAIIPRP
  shrunken log2 fold change: -1.09

## RRIRLRPPRLPRPRPRPNTYPRP
  shrunken log2 fold change: -0.522

## RRIRTRPPRLPRPRPRPEVIPRP
  shrunken log2 fold change: -0.0149

## RRIRFRPPRLPRPRPRPRWSPRP
  shrunken log2 fold change: 0.112

## RRIRRRPPRLPRPRPRPTTMPRP
  shrunken log2 fold change: 0.32

## RRIRRRPPRLPRPRPRPHQDPRP
  shrunken log2 fold change: 0.0414

## RRIRERPPRLPRPRPRPHQVPRP
  shrunken log2 fold change: -0.0847

## RRIRDRPPRLPRPRPRPFLTPRP
  shrunken log2 fold change: -0.0719

## RRIRPRPPRLPRPRPRPAPLPRP
  shrunken log2 fold change: 0.407

## RRIRRRPPRLPRPRPRPVCMPRP
  shrunken log2 fold change: 0.32

## RRIRHRPPRLPRPRPRPEIVPRP
  shrunken log2 fold change: -0.0182

## RRIRLRPPRLPRPRPRPTMSPRP
  shrunken log2 fold change: -0.226

## RRIRHRPPRLPRPRPRPGPFPRP
  shrunken log2 fold change: -0.225

## RRIRYRPPRLPRPRPRPDCTPRP
  shrunken log2 fold change: -0.268

## RRIRWRPPRLPRPRPRPSQAPRP
  shrunken log2 fold change: -0.126

## RRIRMRPPRLPRPRPRPRQTPRP
  shrunken log2 fold change: 0.0189

## RRIRTRPPRLPRPRPRPIYHPRP
  shrunken log2 fold change: -0.191

## RRIRCRPPRLPRPRPRPLDNPRP
  shrunken log2 fold change: -0.235

## RRIRTRPPRLPRPRPRPSHQPRP
  shrunken log2 fold change: 0.185

## RRIRIRPPRLPRPRPRPYLHPRP
  shrunken log2 fold change: -1.61

## RRIRERPPRLPRPRPRPTHQPRP
  shrunken log2 fold change: -0.135

## RRIRTRPPRLPRPRPRPKKSPRP
  shrunken log2 fold change: -0.106

## RRIRKRPPRLPRPRPRPQDAPRP
  shrunken log2 fold change: 0.027

## RRIRGRPPRLPRPRPRPLSQPRP
  shrunken log2 fold change: 0.872

## RRIRIRPPRLPRPRPRPVTTPRP
  shrunken log2 fold change: -0.0229

## RRIRNRPPRLPRPRPRPVESPRP
  shrunken log2 fold change: -0.165

## RRIRHRPPRLPRPRPRPHHNPRP
  shrunken log2 fold change: -0.672

## RRIRERPPRLPRPRPRPHYPPRP
  shrunken log2 fold change: -0.649

## RRIRCRPPRLPRPRPRPHPIPRP
  shrunken log2 fold change: -0.229

## RRIRQRPPRLPRPRPRPINNPRP
  shrunken log2 fold change: -0.803

## RRIRGRPPRLPRPRPRPWKTPRP
  shrunken log2 fold change: -0.0497

## RRIRGRPPRLPRPRPRPVYTPRP
  shrunken log2 fold change: 0.00198

## RRIRIRPPRLPRPRPRPDGHPRP
  shrunken log2 fold change: -0.153

## RRIRLRPPRLPRPRPRPVDGPRP
  shrunken log2 fold change: 0.0489

## RRIRYRPPRLPRPRPRPFALPRP
  shrunken log2 fold change: -0.133

## RRIRPRPPRLPRPRPRPWKWPRP
  shrunken log2 fold change: 0.423

## RRIRPRPPRLPRPRPRPCTKPRP
  shrunken log2 fold change: -0.244

## RRIRDRPPRLPRPRPRPFREPRP
  shrunken log2 fold change: -0.376

## RRIRCRPPRLPRPRPRPYYWPRP
  shrunken log2 fold change: -0.992

## RRIRARPPRLPRPRPRPTWFPRP
  shrunken log2 fold change: 0.225

## RRIRKRPPRLPRPRPRPMIKPRP
  shrunken log2 fold change: -0.0199

## RRIRTRPPRLPRPRPRPELTPRP
  shrunken log2 fold change: 0.0104

## RRIRLRPPRLPRPRPRPNTMPRP
  shrunken log2 fold change: -0.501

## RRIRVRPPRLPRPRPRPVKLPRP
  shrunken log2 fold change: -0.407

## RRIRNRPPRLPRPRPRPFRVPRP
  shrunken log2 fold change: -0.17

## RRIRSRPPRLPRPRPRPWIKPRP
  shrunken log2 fold change: -0.34

## RRIRERPPRLPRPRPRPTPMPRP
  shrunken log2 fold change: 0.0913

## RRIRQRPPRLPRPRPRPDYSPRP
  shrunken log2 fold change: -0.0839

## RRIRLRPPRLPRPRPRPLWEPRP
  shrunken log2 fold change: 0.697

## RRIRWRPPRLPRPRPRPIMGPRP
  shrunken log2 fold change: 0.0656

## RRIRQRPPRLPRPRPRPRQSPRP
  shrunken log2 fold change: 0.0272

## RRIRGRPPRLPRPRPRPLFIPRP
  shrunken log2 fold change: -0.234

## RRIRKRPPRLPRPRPRPGICPRP
  shrunken log2 fold change: 0.0428

## RRIRARPPRLPRPRPRPLKYPRP
  shrunken log2 fold change: -0.11

## RRIRKRPPRLPRPRPRPALPPRP
  shrunken log2 fold change: 0.936
